Tests used:
[1] = target: T1, 1x human ubiquitin (C-terminal His-tagged) (human, UniProt P0CG48 1-76); test: ITC; 18 injections of 2 μl of 300 μM ubiquitin or phosphorylated ubiquitin into 200 μl of 30 μM GST-mRABGEF1 in the cell; 25°C; TBS buffer; single site binding model; conditions: both partners purified
T1 construct: human ubiquitin, the 76-residue mature product (primers from the ATG to the codons of the last two glycines); In pET21a(+) between BamHI and XhoI; also called 1x ubiquitin; 1 × Ub; source: E. coli BL21-CodonPlus(DE3)-RIL, purified (Ni-NTA; for ITC also Superdex 75)

[2] = target: T2, S65 phosphorylated ubiquitin produced in bacterial cells (human, UniProt P0CG48 1-76, S65 phosphorylated); test: as above; conditions: both partners purified
T2 construct: human ubiquitin, the 76-residue mature product, from pET21a(+)/1xUb; Same construct as m13, phosphorylated in the bacteria by co-expressed membrane-anchored TcPINK1; also called monomeric phosphorylated ubiquitin; source: Superdex 75)

Kd [1]: 2.2 µM | Kd [2]: 5.6 µM
B1: GST-tagged mouse RABGEF1 (WT) 1-74aa (domain or fragment)
chain: not shown
notes: Expressed with 50 μM ZnCl2 in the medium; also called GST-mRABGEF1 (WT); GST-mRABGEF1 WT; source: E. coli BL21-CodonPlus(DE3)-RIL, purified (glutathione-Sepharose 4B; for ITC also Superdex 75); not shown: GST, N-terminal, kept
